Data reported in publication PMC10207894, “A MOF/DNA luminescent sensing platform for detection of potential COVID-19 biomarkers and drugs†”.

Molecular target: interleukin-10 (IL-10) (UniProt P22301 19-178)
Experiment: luminescence quenching on Y-MOF; 1 uM protein; no obvious quenching at 514 nm; Y-MOF suspension 0.1 g/L (900 uL) mixed with 1 uM DNA (100 uL) 30 min; excitation 380 nm, IL-6 0-14.4 nM; buffer, salt, pH and temperature not stated
Details: protein: commercial; chain copies: 2; label: 5'-FAM; stem-loop

Sequence of interleukin-10 (IL-10) (P22301 19-178): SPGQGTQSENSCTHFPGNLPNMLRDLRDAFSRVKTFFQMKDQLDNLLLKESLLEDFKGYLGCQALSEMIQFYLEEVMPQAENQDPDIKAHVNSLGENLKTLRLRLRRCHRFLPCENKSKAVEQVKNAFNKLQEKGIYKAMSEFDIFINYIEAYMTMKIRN

B1: S2 (extended IL-6 aptamer) (structured_DNA)
DNA: TTTTTTTAAGCTTACCTGCCATGCCAGTACCCCCAGGAGAAGATTCCAAAGATGTGGCCGCCCCACAAAAAAAA
B1: no binding.
